# Residue numbers refer to the chain shown, from its start.
# T1: ORC1 230-400-His (human, UniProt Q13415 230-400)
# T1 sequence: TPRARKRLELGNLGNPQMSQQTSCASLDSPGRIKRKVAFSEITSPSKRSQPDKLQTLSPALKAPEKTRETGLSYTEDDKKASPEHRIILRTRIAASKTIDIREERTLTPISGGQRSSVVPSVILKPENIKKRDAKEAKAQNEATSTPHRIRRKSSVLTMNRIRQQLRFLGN
# T2: MBP-ORC1 (human, UniProt Q13415 1-861)
# T2 sequence: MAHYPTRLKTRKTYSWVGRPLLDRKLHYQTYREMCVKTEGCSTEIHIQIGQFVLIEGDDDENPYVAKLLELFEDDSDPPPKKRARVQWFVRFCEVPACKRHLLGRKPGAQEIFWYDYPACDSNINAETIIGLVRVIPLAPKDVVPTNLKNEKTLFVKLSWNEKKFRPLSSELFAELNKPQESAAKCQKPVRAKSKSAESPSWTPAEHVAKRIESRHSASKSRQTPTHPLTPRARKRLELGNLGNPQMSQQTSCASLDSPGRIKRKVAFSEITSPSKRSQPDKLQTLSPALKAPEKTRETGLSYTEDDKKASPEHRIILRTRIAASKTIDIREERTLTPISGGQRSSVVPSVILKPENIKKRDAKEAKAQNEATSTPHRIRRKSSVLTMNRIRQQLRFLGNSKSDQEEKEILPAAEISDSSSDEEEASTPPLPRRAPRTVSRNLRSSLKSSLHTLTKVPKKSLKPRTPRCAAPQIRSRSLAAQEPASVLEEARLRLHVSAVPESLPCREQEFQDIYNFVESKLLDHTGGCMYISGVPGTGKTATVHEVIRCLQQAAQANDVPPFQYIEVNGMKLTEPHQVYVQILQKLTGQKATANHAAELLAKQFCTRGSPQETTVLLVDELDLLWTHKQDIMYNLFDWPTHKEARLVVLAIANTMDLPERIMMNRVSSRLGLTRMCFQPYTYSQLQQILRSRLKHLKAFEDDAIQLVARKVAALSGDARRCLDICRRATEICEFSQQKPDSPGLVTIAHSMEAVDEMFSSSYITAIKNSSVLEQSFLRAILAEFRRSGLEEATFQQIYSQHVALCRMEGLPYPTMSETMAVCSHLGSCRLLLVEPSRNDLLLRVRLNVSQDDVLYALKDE
# T3: GST-CDC6 (human, UniProt Q99741 1-560)
# T3 sequence: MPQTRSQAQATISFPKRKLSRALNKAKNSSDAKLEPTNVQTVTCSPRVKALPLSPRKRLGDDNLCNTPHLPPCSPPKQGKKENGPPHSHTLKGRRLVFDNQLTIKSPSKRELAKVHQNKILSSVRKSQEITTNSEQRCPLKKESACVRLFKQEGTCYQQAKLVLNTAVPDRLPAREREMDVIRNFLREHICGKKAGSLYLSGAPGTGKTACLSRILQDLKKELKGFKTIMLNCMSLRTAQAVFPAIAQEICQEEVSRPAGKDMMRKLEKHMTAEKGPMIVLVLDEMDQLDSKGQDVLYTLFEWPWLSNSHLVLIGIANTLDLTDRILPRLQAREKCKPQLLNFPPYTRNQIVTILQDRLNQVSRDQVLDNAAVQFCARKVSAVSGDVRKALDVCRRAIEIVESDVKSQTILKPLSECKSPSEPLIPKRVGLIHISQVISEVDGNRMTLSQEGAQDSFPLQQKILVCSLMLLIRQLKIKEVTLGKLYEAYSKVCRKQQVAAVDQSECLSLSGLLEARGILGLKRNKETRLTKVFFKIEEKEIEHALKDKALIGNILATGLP
# B1: MBP-ORC1-100-250 (domain or fragment)
# chain: RHLLGRKPGAQEIFWYDYPACDSNINAETIIGLVRVIPLAPKDVVPTNLKNEKTLFVKLSWNEKKFRPLSSELFAELNKPQESAAKCQKPVRAKSKSAESPSWTPAEHVAKRIESRHSASKSRQTPTHPLTPRARKRLELGNLGNPQMSQQ
# B2: GST-CDC6 1-110 (domain or fragment)
# chain: MPQTRSQAQATISFPKRKLSRALNKAKNSSDAKLEPTNVQTVTCSPRVKALPLSPRKRLGDDNLCNTPHLPPCSPPKQGKKENGPPHSHTLKGRRLVFDNQLTIKSPSKR
# B3: GST-CDC6 with internal deletion of 71-90 (natural protein)
# chain: MPQTRSQAQATISFPKRKLSRALNKAKNSSDAKLEPTNVQTVTCSPRVKALPLSPRKRLGDDNLCNTPHLLKGRRLVFDNQLTIKSPSKRELAKVHQNKILSSVRKSQEITTNSEQRCPLKKESACVRLFKQEGTCYQQAKLVLNTAVPDRLPAREREMDVIRNFLREHICGKKAGSLYLSGAPGTGKTACLSRILQDLKKELKGFKTIMLNCMSLRTAQAVFPAIAQEICQEEVSRPAGKDMMRKLEKHMTAEKGPMIVLVLDEMDQLDSKGQDVLYTLFEWPWLSNSHLVLIGIANTLDLTDRILPRLQAREKCKPQLLNFPPYTRNQIVTILQDRLNQVSRDQVLDNAAVQFCARKVSAVSGDVRKALDVCRRAIEIVESDVKSQTILKPLSECKSPSEPLIPKRVGLIHISQVISEVDGNRMTLSQEGAQDSFPLQQKILVCSLMLLIRQLKIKEVTLGKLYEAYSKVCRKQQVAAVDQSECLSLSGLLEARGILGLKRNKETRLTKVFFKIEEKEIEHALKDKALIGNILATGLP
# B4: GST-CDC6 with internal deletion of 11-20 (natural protein)
# chain: MPQTRSQAQARALNKAKNSSDAKLEPTNVQTVTCSPRVKALPLSPRKRLGDDNLCNTPHLPPCSPPKQGKKENGPPHSHTLKGRRLVFDNQLTIKSPSKRELAKVHQNKILSSVRKSQEITTNSEQRCPLKKESACVRLFKQEGTCYQQAKLVLNTAVPDRLPAREREMDVIRNFLREHICGKKAGSLYLSGAPGTGKTACLSRILQDLKKELKGFKTIMLNCMSLRTAQAVFPAIAQEICQEEVSRPAGKDMMRKLEKHMTAEKGPMIVLVLDEMDQLDSKGQDVLYTLFEWPWLSNSHLVLIGIANTLDLTDRILPRLQAREKCKPQLLNFPPYTRNQIVTILQDRLNQVSRDQVLDNAAVQFCARKVSAVSGDVRKALDVCRRAIEIVESDVKSQTILKPLSECKSPSEPLIPKRVGLIHISQVISEVDGNRMTLSQEGAQDSFPLQQKILVCSLMLLIRQLKIKEVTLGKLYEAYSKVCRKQQVAAVDQSECLSLSGLLEARGILGLKRNKETRLTKVFFKIEEKEIEHALKDKALIGNILATGLP
# B5: GST-CDC6 with internal deletion of 21-30 (natural protein)
# chain: B4 chain with R11T, A12I, L13S, N14F, K15P, A16K, K17R, N18K, S19L
# B6: GST-CDC6 with internal deletion of 51-70 (natural protein)
# chain: MPQTRSQAQATISFPKRKLSRALNKAKNSSDAKLEPTNVQTVTCSPRVKAPPCSPPKQGKKENGPPHSHTLKGRRLVFDNQLTIKSPSKRELAKVHQNKILSSVRKSQEITTNSEQRCPLKKESACVRLFKQEGTCYQQAKLVLNTAVPDRLPAREREMDVIRNFLREHICGKKAGSLYLSGAPGTGKTACLSRILQDLKKELKGFKTIMLNCMSLRTAQAVFPAIAQEICQEEVSRPAGKDMMRKLEKHMTAEKGPMIVLVLDEMDQLDSKGQDVLYTLFEWPWLSNSHLVLIGIANTLDLTDRILPRLQAREKCKPQLLNFPPYTRNQIVTILQDRLNQVSRDQVLDNAAVQFCARKVSAVSGDVRKALDVCRRAIEIVESDVKSQTILKPLSECKSPSEPLIPKRVGLIHISQVISEVDGNRMTLSQEGAQDSFPLQQKILVCSLMLLIRQLKIKEVTLGKLYEAYSKVCRKQQVAAVDQSECLSLSGLLEARGILGLKRNKETRLTKVFFKIEEKEIEHALKDKALIGNILATGLP
# B7: MBP-ORC1-350-400 (domain or fragment)
# chain: SVILKPENIKKRDAKEAKAQNEATSTPHRIRRKSSVLTMNRIRQQLRFLGN
# B8: MBP-ORC1 1-240 (domain or fragment)
# chain: MAHYPTRLKTRKTYSWVGRPLLDRKLHYQTYREMCVKTEGCSTEIHIQIGQFVLIEGDDDENPYVAKLLELFEDDSDPPPKKRARVQWFVRFCEVPACKRHLLGRKPGAQEIFWYDYPACDSNINAETIIGLVRVIPLAPKDVVPTNLKNEKTLFVKLSWNEKKFRPLSSELFAELNKPQESAAKCQKPVRAKSKSAESPSWTPAEHVAKRIESRHSASKSRQTPTHPLTPRARKRLELG
# B9: MBP-ORC1 180-400 (domain or fragment)
# chain: QESAAKCQKPVRAKSKSAESPSWTPAEHVAKRIESRHSASKSRQTPTHPLTPRARKRLELGNLGNPQMSQQTSCASLDSPGRIKRKVAFSEITSPSKRSQPDKLQTLSPALKAPEKTRETGLSYTEDDKKASPEHRIILRTRIAASKTIDIREERTLTPISGGQRSSVVPSVILKPENIKKRDAKEAKAQNEATSTPHRIRRKSSVLTMNRIRQQLRFLGN
# B10: MBP-ORC1-180-240 (domain or fragment)
# chain: QESAAKCQKPVRAKSKSAESPSWTPAEHVAKRIESRHSASKSRQTPTHPLTPRARKRLELG
# B11: MBP-ORC1 fragment (165-250) (domain or fragment)
# chain: FRPLSSELFAELNKPQESAAKCQKPVRAKSKSAESPSWTPAEHVAKRIESRHSASKSRQTPTHPLTPRARKRLELGNLGNPQMSQQ
# B12: MBP-ORC1-230-400 A-A (domain or fragment)
# chain: T1 sequence with K6A, L8A
# B13: MBP-ORC1-230-400 (domain or fragment)
# chain: T1 sequence
# B14: ORC1-180-240-His (domain or fragment)
# chain: B10 chain
# Target: T1, ORC1 230-400-His
# Assay: pull-down
row,binding result,Binder
1,binds,B1

# Target: T2, MBP-ORC1
# Assay: pull-down
row,binding result,Binder
1,binds,B2
2,binds,B3
3,binds,B4
4,binds,B5
5,binds,B6

# Target: B14
# Assay: pull-down
row,binding result,Binder
1,binds,B7

# Target: T3, GST-CDC6
# Assay: pull-down
row,binding result,Binder
1,binds,B7
2,binds,B8
3,binds,B9
4,binds,B10
5,binds,B11
6,binds,B12
7,binds,B13

# Target: B13
# Assay: pull-down
row,binding result,Binder
1,binds,B14

# Reference: paper doi:10.1101/681668 (bioRxiv, 2019)
